Data from patent US20250320468A1, “New Microbial Diamine Oxidase Derived from Yarrowia Lipolytica for the Degradation of Biogenic Amines” (UNIVERSITÄT HOHENHEIM, priority 2021, published 2025).
Several values for one entry are separate records, joined by “and”; a condition that tells them apart may be missing. Equal values may be shown once.

Tests used:
[1] = Substrate selectivity of DAO-1 (DA-67 assay), histamine; format: biochemical
Experimental: (§1) The amino acids L-tryptophan, L-lysine, L-histidine, and L-arginine were also tested.

[2] = Substrate selectivity of DAO-1 (DA-67 assay), amino acids; format: biochemical; conditions: L-tryptophan, L-lysine, L-histidine, L-arginine at 1, 10 and 50 mM
Experimental: as §1

[3] = Stability of DAO-1 in simulated intestinal fluid (SIF) with and without food matrices; format: in vitro ADME
Experimental: The stability of DAO-1 was tested in a simulated intestinal fluid (SIF) with and without the addition of simulated food matrices. Therefore, pancreatin-containing SIF was prepared as described in the United States Pharmacopeia (USP42). Different food-matrix stock solutions (4× concentrated) were prepared as follows: 200 g/L bovine serum albumin (BSA) and 100 g/L sucrose (=food-matrix 1), 100 g/L BSA, 100 g/L whey protein isolate (WPI) and 200 g/L sucrose (=food-matrix 2) and BSA, WPI, sodium-caseinate each at 66.68 g/L and 200 g/L sucrose (=food-matrix 3). The pH of each stock solution was adjusted to 6.8 with 1 M NaOH. The freshly prepared 2× concentrated SIF, the food-matrix stock solutions as well as DAO-1 (desalted against H2Odd using PD MidiTrap G-25 columns; GE Healthcare, Chicago, USA) were individually incubated for 5 min in a thermoshaker at 37° C. Subsequently, 500 μL of 2× concentrated SIF, 250 μL of DAO-1 and 250 μL of the food-matrix stock solutions were combined and incubated at 37° C., 500 rpm in a thermoshaker. In order to test the stability of DAO-1 without the presence of stabilizing compounds, H2Odd was added instead of the food-matrix stock solution. Immediately after combining the solutions, a sample of 100 μL was taken and used for the DAO-1 activity determination using the DA-67 assay.

[4] = Substrate selectivity of DAO-1 (DA-67 assay), cadaverine; format: biochemical; conditions: 100% = 10 mM histamine
Experimental: as §1

[5] = Substrate selectivity of DAO-1 (DA-67 assay), tryptamine; format: biochemical; conditions: substrate tryptamine 1 mM; 100% = 10 mM histamine
Experimental: as §1

[6] = Substrate selectivity of DAO-1 (DA-67 assay), agmatine; format: biochemical; conditions: 100% = 10 mM histamine
Experimental: as §1

[7] = DAO activity determination, colorimetric DA-67 enzyme assay (specific / total DAO activity); format: biochemical
Experimental: The DAO activity was determined using the colorimetric DA-67 enzyme assay, as known in the art.

[8] = Michaelis-Menten kinetics of DAO-1 in PIPES buffer; format: biochemical; conditions: read-out: Km for histamine; PIPES buffer 25 mM pH 7.2, 37° C
From the text: Kinetic investigations were done within the initial reaction velocity.

[9] = Temperature and pH profile of DAO-1 (DA-67 assay); format: biochemical
Experimental: The influence of temperature on the enzyme activity of DAO-1 was tested under standard assay conditions, whereby the incubation temperature was varied between 2° and 47° C. The pH-dependency of the DAO-1 activity was investigated under standard assay conditions at 37° C., whereby different buffer systems (50 mM sodium phosphate buffer, pH 6.2-7.8; 50 mM PIPES, pH 7-7.5; 50 mM Tris-HCl, pH 7.2-8.5) were used. The respective buffer system was calibrated with hydrogen peroxide (0.5 to 10 nmol/mL). Analytically pure histamine was used as a substrate for the temperature and pH profiles.

[10] = pH-stability of DAO-1 in buffer systems at 37° C; format: physicochemical
Experimental: Consequently, DAO-1 was incubated for 5 h at 37° C. and stirred at 400 rpm in the following buffer systems: 20 mM MES (pH 5.5), 20 mM sodium phosphate buffer (pH 6.2, 7.0, 7.2, 7.8, 8.0), 20 mM PIPES (pH 7.0, 7.2, 7.5) and 20 mM Tris-HCl (pH 6.8, 7.5, 8.2). Afterwards, the residual enzyme activity of DAO-1 was determined under standard assay conditions and compared to the DAO-1 activity applied initially.

[11] = Substrate selectivity of DAO-1 (DA-67 assay), putrescine; format: biochemical; conditions: 100% = 10 mM histamine
Experimental: as §1

[12] = Substrate selectivity of DAO-1 (DA-67 assay), tyramine; format: biochemical; conditions: 100% = 10 mM histamine
Experimental: as §1

[13] = substrate: NCCc1c[nH]cn1; assay: purified protein, by the assay type
[14] = Histamine bioconversion with DAO-1 in PIPES buffer with simulated food matrix (RP-HPLC); format: biochemical; conditions: for histamine concentration after bioconversion: 0.1 nkat/mL DAO-1, 5 h
Experimental: An amount of 5 g/L BSA and 25 g/L sucrose were added to the approach to simulate a food matrix. Additionally, catalase was added (30 nkat/mL) to remove the hydrogen peroxide. The experiment was started by the addition of 0.1 nkat/mL DAO-1 activity.

[15] = Substrate selectivity of DAO-1 (DA-67 assay), spermidine; format: biochemical; conditions: 100% = 10 mM histamine
Experimental: as §1

[16] = bioreactor cultivation, crude extract
[17] = other: apparent, histamine 0.5-50 mM, PIPES buffer (25 mM; pH 7.2), 37° C., pH 7.2

B1: Yarrowia lipolytica PO1f diamine oxidase-1 (DAO-1), wild type, SEQ ID NO: 1 (Yarrowia lipolytica CLIB122) (protein)
chain: MTPHPFDQLSVQEMESVVRVVKSNHSGKSLHLKSIGTEEPPKALMAPFLAAKRAGKNPVPPPRIAHVIYYVLEDKLVNQCWVDVPSAKVVKSEVLKKGIHPPIDPWEANEAFEAAFDHPLVKDAIKKCGVEHLIDNLTIDGWMYGCDSEIDMPRYLQMLVYCRDPKTNHQDSNMYAFPVPFVPVYDVLEKKLVRVDYCATGGDDDDAAVEGVGNYDTRPEGKNCIEHCVTNDYLPELQDKMRTDLKPYNVLQPEGPSYHIDSDGYINWQKWHFKVGFTPREGLVIHDVHYDGRSTFYRLSMSEMAVPYADPRPPLHRKMAFDFGDCGGGKCANELTLGCDCLGTIRYFDGNVCDPEGNVFTRKNVICMHEQDDGIGWKHTNYRTDVVAITRRRILVLQTILTVGNYEYIFAWHFDQSAGIQLEIRATGIVSTQLIDAGKKSKFGTIVSPGVMAASHQHIFNVRMDPAIDGHQNTVVVNDTVALPWDAKNPHGIAFENTKTPIEKSCYLDSDIQKNRYLKICNENKINPISGNPVGYKIGGLATAMLYAQPGSVSRNRAAFATHHYWVTKYKDQELFAGGVWTNQSANEVGGVQDAVARNENVRNDDVVLWHSFGLTHHPRVEDFPVMPCEIMKIHLSPNDFFTGNPSVDVPKSNQTFNRSVEVKDCRSCKI
In the case of B1, the “DAO-1 activity [%]” value ([1]; substrate histamine 1 mM, 100% = 10 mM histamine) is reported as 45.1 ± 0.7%, the “DAO-1 activity [%]” value ([1]; substrate histamine 10 mM, reference 100%) is reported as 100 ± 1.5% and the “DAO-1 activity [%]” value ([1]; substrate histamine 50 mM, 100% = 10 mM histamine) is reported as 74.4 ± 1.1%. The “DAO-1 activity towards amino acids” value [2] was “did not show any activity”, the half-life period ([3]; food-matrix SIF 1 (50 g/L BSA, 25 g/L sucrose), 37° C) was “around 15 min” and the half-life period ([3]; food-matrix SIF 2 (25 g/L BSA, 25 g/L WPI, 50 g/L sucrose), 37° C) was “around 30 min”. The “initially applied DAO-1 activity available over 90 min” value ([3]; food-matrix SIF 3, 37° C) was “around 43%”, the “residual DAO-1 activity” value ([3]; food-matrix SIF 3, 90 min, 37° C) was 8±0.1% and the half-life period ([3]; pure SIF (pancreatin), 37° C) was “less than 5 min”. For the same molecule, the “DAO-1 activity [%]” value ([4]; substrate cadaverine 1 mM) was 29.6 ± 0.4%, the “DAO-1 activity [%]” value ([4]; substrate cadaverine 10 mM) was 87.3 ± 1.3% and the “DAO-1 activity [%]” value ([4]; substrate cadaverine 50 mM) was 64.5 ± 1.0%. The “DAO-1 activity [%]” value [5] was 166.1 ± 0.8%, the “DAO-1 activity [%]” value ([6]; substrate agmatine 1 mM) was 31 ± 1.1% and the “DAO-1 activity [%]” value ([6]; substrate agmatine 10 mM) was 30.6 ± 2.7%. For the same molecule, the “DAO-1 activity [%]” value ([6]; substrate agmatine 50 mM) was 7.4 ± 2.3%, the “increase of specific DAO-1 activity compared to the recent work” value ([7]; 5 L scale purified preparation) was 3 fold and the “specific DAO-1 activity” value ([7]; 5 L scale, stirred media mill, ammonium sulfate precipitation and HIC) was 15 μkat/gProtein. For the same molecule, the “specific DAO-1 activity of crude extract relative to partially purified porcine DAO” value ([7]; 1301 vs 81 nkat/gProtein) was “around 16 times”, the “specific DAO-1 activity” value ([7]; DAO-1 produced in Komagataella phaffii, fed-batch bioreactor) was 2500 nkat/gProtein and the “specific DAO-1 activity relative to specific DAO activity obtained from porcine kidney” value ([7]; K. phaffii DAO-1 after assumed 7.2-fold purification) was “more than 200 fold”. For the same molecule, the “specific DAO-1 activity” value ([7]; after (NH4)2SO4 precipitation and hydrophobic interaction chromatography) was 4738±31 nkat/gProtein, the “specific DAO-1 activity” value ([7]; after cell disruption (high-pressure homogenizer) of 10 g wet yeast biomass, before purification) was 660±28 nkat/gProtein and the “increase in specific DAO activity compared with extracted and purified DAO from porcine kidney” value ([7]; after chromatographic purification) was about 60 fold. For the same molecule, the “increase in specific DAO activity compared with DAO extraction from porcine kidney” value [7, 16] was 145 fold, the “increase in specific DAO activity compared with native DAO-1 production in Y. lipolytica PO1f” value [7, 16] was 93 fold and the “specific DAO-1 activity” value ([7]; crude extract, bioreactor cultivation of Y. lipolytica PO1f_axp_dao-1, final (96 h)) was 1301±54.2 nkat/gProtein. The Km [8] was 2300 µM, the “relative DAO-1 activity” value ([9]; 42° C, relative to maximum at 40° C) was 76±1% and the “relative DAO-1 activity” value ([9]; 45° C, relative to maximum at 40° C) was 31.7±1%. For the same molecule, the “DAO-1 activity compared to the maximal activity in Tris-HCl at pH 7.2” value ([9]; PIPES buffer) was 92.2±3.9%, the “temperature of maximal DAO-1 activity” value ([9]; PIPES buffer 25 mM pH 7.2, histamine substrate) was 40 °C and the “pH of maximal DAO activity” value ([9]; Tris-HCl buffer (50 mM), 37° C, histamine substrate) was 7.2. The “Maximal DAO-1 activity (100%)” value ([9]; pH/buffer profile at 37° C (FIG. 8)) was 1.84±0.03 nkat/mL, the “Maximal DAO-1 activity (100%)” value ([9]; temperature profile, PIPES 25 mM pH 7.2 (FIG. 7)) was 1.88±0.01 nkat/mL and the “relative DAO-1 activity” value ([9]; temperature range between 3° and 42° C) was “greater than 50%”. For the same molecule, the “residual DAO-1 activity” value ([10]; 37° C, 5 h, pH range from 6.2 to 7.5) was “more than 60%”, the “residual DAO-1 activity” value ([10]; 37° C, 24 h) was 53.7±1.2% and the “residual DAO-1 activity” value ([10]; PIPES buffer (20 mM) pH 7.0, 37° C, 5 h) was 89.5±0.8%. For the same molecule, the “DAO-1 activity [%]” value ([11]; substrate putrescine 1 mM) was 29.8 ± 0.4%, the “DAO-1 activity [%]” value ([11]; substrate putrescine 10 mM) was 92.9 ± 1.4% and the “DAO-1 activity [%]” value ([11]; substrate putrescine 50 mM) was 77.9 ± 1.1%. The “DAO-1 activity [%]” value ([12]; substrate tyramine 1 mM) was 303.9 ± 4.4%, the “DAO-1 activity [%]” value ([12]; substrate tyramine 10 mM) was 246.8 ± 3.6% and the “DAO-1 activity [%]” value ([12]; substrate tyramine 50 mM) was 66.4 ± 1.0%. The Km [13, 17] was 2300 ± 200 µM, the Vmax [13, 17] was 9.09±0.37 nkat/mg and the Km ([13]; other: hydrolyzed food-matrix SIF 3 (pancreatin, 90 min at 37° C.), pH 6.8, histamine 1.56-50 mM, pH 6.8) was 4200 ± 500 µM. The “residual activity of DAO-1 after bioconversion” value ([14]; after 5 h bioconversion at 37° C, determined by RP-HPLC) was 57.4±1.3%, the “histamine concentration at start of stagnation” value ([14]; around 4 h) was 43.5±0.76 mg/L and 0.39±0.01 mM and the “histamine concentration after bioconversion” value ([14]; initial 1.35 mM, 37° C) was 0.34 ± 0.01 mM. The “histamine concentration after bioconversion” value ([14]; initial 150 mg/L, 37° C) was 37.4±0.65 mg/L and 37.4±+0.65 mg/L, the “remaining histamine relative to initial (100%)” value ([14]; initial 150 mg/L, 5 hours, 37° C) was 25±1.7% and the “DAO-1 activity [%]” value ([15]; substrate spermidine 1 mM) was 2.1 ± 1.6%. The “DAO-1 activity [%]” value ([15]; substrate spermidine 10 mM) was 3.8 ± 0.9% and the “DAO-1 activity [%]” value ([15]; substrate spermidine 50 mM) was 2.1 ± 1.3%.
